Measurements: patent US12692305

What was measured:
[1] = molecular target: PD-1 on in vitro activated primary human T cells (human) (UniProt Q15116); assay: flow cytometry, detection antibody on Ki-67+ CD4+ activated T cells after 4 d with 100 nM IL-15Rα-Fc precomplexed with IL-15
[2] = molecular target: PD-1 on in vitro activated primary human T cells (human) (UniProt Q15116); assay: flow cytometry, detection antibody on Ki-67+ CD4+ activated T cells after 4 d with 10 nM IL-15 alone
[3] = molecular target: PD-1 on in vitro activated primary human T cells (human) (UniProt Q15116); assay: flow cytometry, detection antibody on Ki-67+ CD4+ activated T cells after 4 d with 10 nM RV1 precomplexed with IL-15
[4] = molecular target: PD-1 on in vitro activated primary human T cells (human) (UniProt Q15116); assay: flow cytometry, detection antibody on Ki-67+ CD8+ activated T cells after 4 d with 10 nM RV2 precomplexed with IL-15
[5] = molecular target: PD-1 on in vitro activated primary human T cells (human) (UniProt Q15116); assay: flow cytometry, detection antibody on Ki-67+ CD8+ activated T cells after 4 d with 1 nM RV1 precomplexed with IL-15
[6] = molecular target: PD-1 on in vitro activated primary human T cells (human) (UniProt Q15116); assay: flow cytometry, detection antibody on Ki-67+ CD8+ activated T cells; average pooled over non-PD-1-binding test samples and concentrations
[7] = molecular target: PD-1 on in vitro activated primary human T cells (human) (UniProt Q15116); assay: flow cytometry, detection antibody on Ki-67+ CD4+ activated T cells; average pooled over non-PD-1-binding test samples and concentrations
[8] = molecular target: PD-1 on in vitro activated primary human T cells (human) (UniProt Q15116); assay: flow cytometry, detection antibody on Ki-67+ CD4+ activated T cells after 4 d with 1 nM RV1 precomplexed with IL-15
[9] = molecular target: PD-1 on in vitro activated primary human T cells (human) (UniProt Q15116); assay: flow cytometry, detection antibody on Ki-67+ CD4+ activated T cells after 4 d with 100 nM RV1 precomplexed with IL-15
[10] = molecular target: PD-1 on in vitro activated primary human T cells (human) (UniProt Q15116); assay: flow cytometry, detection antibody on Ki-67+ CD8+ activated T cells after 4 d with 1 nM RV2 precomplexed with IL-15
[11] = molecular target: PD-1 on in vitro activated primary human T cells (human) (UniProt Q15116); assay: flow cytometry, detection antibody on Ki-67+ CD4+ activated T cells after 4 d with 100 nM RV2 precomplexed with IL-15
[12] = molecular target: PD-1 on in vitro activated primary human T cells (human) (UniProt Q15116); assay: flow cytometry, detection antibody on Ki-67+ CD8+ activated T cells, media only
[13] = molecular target: PD-1 on in vitro activated primary human T cells (human) (UniProt Q15116); assay: flow cytometry, residual staining by detection antibody on Ki-67+ CD8+ activated T cells in the presence of competitors RV29 and RV32 (IL-15 precomplexed); average pooled over both constructs and 100, 10 and 1 nM
[14] = molecular target: PD-1 on in vitro activated primary human T cells (human) (UniProt Q15116); assay: flow cytometry, detection antibody on Ki-67+ CD8+ activated T cells after 4 d with 10 nM IL-15Rα-Fc precomplexed with IL-15
[15] = molecular target: PD-1 on in vitro activated primary human T cells (human) (UniProt Q15116); assay: flow cytometry, detection antibody on Ki-67+ CD4+ activated T cells after 4 d with 1 nM IL-15 alone
[16] = molecular target: PD-1 on in vitro activated primary human T cells (human) (UniProt Q15116); assay: flow cytometry, detection antibody on Ki-67+ CD4+ activated T cells after 4 d with 1 nM IL-15Rα-Fc precomplexed with IL-15
[17] = molecular target: PD-1 on in vitro activated primary human T cells (human) (UniProt Q15116); assay: flow cytometry, detection antibody on Ki-67+ CD8+ activated T cells after 4 d with 100 nM IL-15 alone
[18] = molecular target: PD-1 on in vitro activated primary human T cells (human) (UniProt Q15116); assay: flow cytometry, detection antibody on Ki-67+ CD8+ activated T cells after 4 d with 1 nM IL-15Rα-Fc precomplexed with IL-15
[19] = molecular target: PD-1 on in vitro activated primary human T cells (human) (UniProt Q15116); assay: flow cytometry, detection antibody on Ki-67+ CD8+ activated T cells after 4 d with 100 nM RV2 precomplexed with IL-15
[20] = molecular target: PD-1 on in vitro activated primary human T cells (human) (UniProt Q15116); assay: flow cytometry, detection antibody on Ki-67+ CD4+ activated T cells after 4 d with 10 nM IL-15Rα-Fc precomplexed with IL-15
[21] = molecular target: PD-1 on in vitro activated primary human T cells (human) (UniProt Q15116); assay: flow cytometry, detection antibody on Ki-67+ CD4+ activated T cells, media only
[22] = molecular target: PD-1 on in vitro activated primary human T cells (human) (UniProt Q15116); assay: flow cytometry, detection antibody on Ki-67+ CD8+ activated T cells after 4 d with 100 nM IL-15Rα-Fc precomplexed with IL-15
[23] = molecular target: PD-1 on in vitro activated primary human T cells (human) (UniProt Q15116); assay: flow cytometry, residual staining by detection antibody on Ki-67+ CD4+ activated T cells in the presence of competitors RV29 and RV32 (IL-15 precomplexed); average pooled over both constructs and 100, 10 and 1 nM
[24] = molecular target: PD-1 on in vitro activated primary human T cells (human) (UniProt Q15116); assay: flow cytometry, detection antibody on Ki-67+ CD8+ activated T cells after 4 d with 1 nM IL-15 alone
[25] = molecular target: PD-1 on in vitro activated primary human T cells (human) (UniProt Q15116); assay: flow cytometry, detection antibody on Ki-67+ CD8+ activated T cells after 4 d with 100 nM RV1 precomplexed with IL-15
[26] = molecular target: PD-1 on in vitro activated primary human T cells (human) (UniProt Q15116); assay: flow cytometry, detection antibody on Ki-67+ CD4+ activated T cells after 4 d with 100 nM IL-15 alone
[27] = molecular target: PD-1 on in vitro activated primary human T cells (human) (UniProt Q15116); assay: flow cytometry, detection antibody on Ki-67+ CD4+ activated T cells after 4 d with 1 nM RV2 precomplexed with IL-15
[28] = molecular target: PD-1 on in vitro activated primary human T cells (human) (UniProt Q15116); assay: flow cytometry, detection antibody on Ki-67+ CD4+ activated T cells after 4 d with 10 nM RV2 precomplexed with IL-15
[29] = molecular target: PD-1 on in vitro activated primary human T cells (human) (UniProt Q15116); assay: flow cytometry, detection antibody on Ki-67+ CD8+ activated T cells after 4 d with 10 nM RV1 precomplexed with IL-15
[30] = molecular target: PD-1 on in vitro activated primary human T cells (human) (UniProt Q15116); assay: flow cytometry, detection antibody on Ki-67+ CD8+ activated T cells after 4 d with 10 nM IL-15 alone

Chain of PD-1 on in vitro activated primary human T cells (human) (Q15116 25-288): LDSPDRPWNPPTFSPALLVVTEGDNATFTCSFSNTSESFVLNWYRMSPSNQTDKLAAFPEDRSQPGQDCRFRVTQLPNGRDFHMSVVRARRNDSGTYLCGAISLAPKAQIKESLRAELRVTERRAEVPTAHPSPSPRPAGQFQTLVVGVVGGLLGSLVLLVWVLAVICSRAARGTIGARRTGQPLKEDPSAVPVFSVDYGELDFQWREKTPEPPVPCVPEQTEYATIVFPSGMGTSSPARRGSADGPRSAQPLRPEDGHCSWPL

## PD-1 detection antibody (clone EH12.21H7)
[1]
  MFI of PD-1 staining: 4380 MFI
[2]
  MFI of PD-1 staining: 6440 MFI
[3]
  MFI of PD-1 staining: 4620 MFI
[4]
  MFI of PD-1 staining: 2020 MFI
[5]
  MFI of PD-1 staining: 1870 MFI
[6]
  MFI of PD-1 staining (average): 2190 MFI
[7]
  MFI of PD-1 staining (average): 4830 MFI
[8]
  MFI of PD-1 staining: 4100 MFI
[9]
  MFI of PD-1 staining: 4830 MFI
[10]
  MFI of PD-1 staining: 1920 MFI
[11]
  MFI of PD-1 staining: 5840 MFI
[12]
  MFI of PD-1 staining: 2250 MFI
[13]
  MFI of PD-1 staining (average): 1460 MFI
[14]
  MFI of PD-1 staining: 2120 MFI
[15]
  MFI of PD-1 staining: 4870 MFI
[16]
  MFI of PD-1 staining: 4280 MFI
[17]
  MFI of PD-1 staining: 3220 MFI
[18]
  MFI of PD-1 staining: 1690 MFI
[19]
  MFI of PD-1 staining: 2820 MFI
[20]
  MFI of PD-1 staining: 4480 MFI
[21]
  MFI of PD-1 staining: 4020 MFI
[22]
  MFI of PD-1 staining: 2110 MFI
[23]
  MFI of PD-1 staining (average): 3090 MFI
[24]
  MFI of PD-1 staining: 2050 MFI
[25]
  MFI of PD-1 staining: 2370 MFI
[26]
  MFI of PD-1 staining: 6550 MFI
[27]
  MFI of PD-1 staining: 4200 MFI
[28]
  MFI of PD-1 staining: 5070 MFI
[29]
  MFI of PD-1 staining: 1890 MFI
[30]
  MFI of PD-1 staining: 3190 MFI
